Source: article PMC7099005, “Function-based high-throughput screening for antibody antagonists and agonists against G protein-coupled receptors” (Communications Biology, 2020)
Substitutions are numbered along the chain they refer to. Each block holds one binder with its values, some of them ahead of it.

Tests used:
[1] = molecular target: T1, human apelin receptor (APJ), wild type (Homo sapiens, UniProt P35414); experiment: flow cytometry on cells; 2 x 10^5 HEK293FT cells stably expressing HA-tagged huAPJ or its mutants stained with 250 nM soluble sdAb at 4 °C for 1 h; mouse anti-his antibody and Alexa Fluor 488 goat anti-mouse; sdAb GeoMean relative to anti-HA staining, normalised to WT APJ; settings: one partner purified
T1 construct: The functional assays used other APJ cell lines (PathHunter CHO-k1/APJ, U2OS AGTRL1, Tango/APJ with a C-terminal TEV site and transcription factor); this molecule stands for them in the functional rows; also called huAPJ; WT APJ

[2] = molecular target: T1, human apelin receptor (APJ), wild type; experiment: cell-based or functional assay

T1 sequence (P35414 whole entry): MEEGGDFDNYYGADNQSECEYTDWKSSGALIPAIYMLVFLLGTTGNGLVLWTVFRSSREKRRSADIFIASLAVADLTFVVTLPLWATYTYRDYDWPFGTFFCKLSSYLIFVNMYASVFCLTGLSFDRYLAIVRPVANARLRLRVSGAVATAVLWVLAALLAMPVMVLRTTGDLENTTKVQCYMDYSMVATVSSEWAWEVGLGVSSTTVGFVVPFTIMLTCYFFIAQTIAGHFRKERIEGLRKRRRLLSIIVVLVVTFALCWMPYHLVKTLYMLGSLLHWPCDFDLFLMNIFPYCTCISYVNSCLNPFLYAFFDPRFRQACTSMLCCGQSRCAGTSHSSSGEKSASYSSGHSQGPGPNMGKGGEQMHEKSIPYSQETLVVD

B1: sdAb antagonist JN404 (VHH)
VHH: QVQLVESGGGSVQAGGSLTLSCVGSGFSWSLNCMSWFRQAPGSEREGVAIFYSETGGAYYADSVEGRFSISQVNAGNTVLLRMNSLRPEDTAMYYCAAGYGCGSTESWWTYDYIFWGQGTLVTVSS
notes: camelid sdAb from a camel immunised with human APJ nanodiscs; source: FreeStyle 293F, transient (pTT5), purified (Ni-NTA)
binding result [1]: binds

B2: sdAb antagonist JN400 (VHH)
VHH: QVQLVESGGGSVQSGGSLRLSCAASGSTYRSHCMGWFRQAPGKEREEVAIMTRSRGTSYADSVKGRFTISQDNTKNILYLQMNSLKPEDTAMYYCAAVPRAGIGDGGYCKWNMKDSGSWGQGTLVTVSS
IC50 of soluble sdAb in APJ PathHunter β-arrestin assay, antagonist mode (apelin 13 at EC80; blocks apelin 13 with APJ) [2]: < 200 nM

B5: sdAb antagonist JN402 (VHH)
VHH: B2 VHH with S14A, R30S, I50L, S54A, G104E, D105T, G107A
IC50 of soluble sdAb in APJ PathHunter β-arrestin assay, antagonist mode (apelin 13 at EC80; blocks apelin 13 with APJ) [2]: < 200 nM

B6: sdAb antagonist JN409 (VHH)
VHH: QVQLVESGGGSVQSGGSLRLSCAASGDTSSRSCMGWFRQAPGKEREWVGRILNAGITSYADSVKGRFTISQDNVKNTLYLQMNSLNSEDTAIYYCAAGRTSYAGSWYCRYNYWGQGTQVTVSS
IC50 of soluble sdAb in APJ PathHunter β-arrestin assay, antagonist mode (apelin 13 at EC80; blocks apelin 13 with APJ) [2]: > 200 nM

B7: sdAb antagonist JN406 (VHH)
VHH: EVQLVESGGGSVQSGGSLRLSCAASGSTYRSHCMGWFRQAPGKEREGVAIMTSRGTTYADSVKGRFTISQDNTKNIFYLQMNSLKPEDTAMYYCAAVPRAGIGDGAFCKWNMKDSGSWGQGTLVTVSS
IC50 of soluble sdAb in APJ PathHunter β-arrestin assay, antagonist mode (apelin 13 at EC80; blocks apelin 13 with APJ) [2]: < 200 nM

B10: sdAb agonist JN300 (VHH)
VHH: HVQLVESGGGSVQAGGSLRLSCAASGYVGSMGWFRQAPGKDREGVAAFDFDGRAKHADSVKGRFTISRDNAKNTLYLQMNNLKPEDTAMYYCARSARQLLMLSHNPSDFGYWGQGTQVTVSS
notes: as for B1
binding result [1]: binds

B11: sdAb antagonist JN401 (VHH)
VHH: HVQLVESGGGSVQSGGSLRLSCVASGITFSLYCMYWFRQAPGKEREAVASIRSTGATVYGDSVKGRFTISRDSAKNTLYLQMNSLNPEDTAMYYCAAAKKMLYGPGCGSYKDWGQGIQVTVSS
IC50 of soluble sdAb in APJ PathHunter β-arrestin assay, antagonist mode (apelin 13 at EC80; blocks apelin 13 with APJ) [2]: > 200 nM

Results, then the binder that gave them:

IC50 of soluble sdAb in APJ PathHunter β-arrestin assay, antagonist mode (apelin 13 at EC80; blocks apelin 13 with APJ) [2]: < 200 nM
B3: sdAb antagonist JN414 (VHH)
VHH: B2 VHH with R19T, R30S, E47G, I50L, G104E, D105S, G107A

IC50 of soluble sdAb in APJ PathHunter β-arrestin assay, antagonist mode (apelin 13 at EC80; blocks apelin 13 with APJ) [2]: < 200 nM
B4: sdAb antagonist JN413 (VHH)
VHH: B2 VHH with Q1D, G107A

IC50 of soluble sdAb in APJ PathHunter β-arrestin assay, antagonist mode (apelin 13 at EC80; blocks apelin 13 with APJ) [2]: < 200 nM
B8: sdAb antagonist JN412 (VHH)
VHH: B7 VHH with E1H, S14A

IC50 of soluble sdAb in APJ PathHunter β-arrestin assay, antagonist mode (apelin 13 at EC80; blocks apelin 13 with APJ) [2]: < 200 nM
B9: sdAb antagonist JN411 (VHH)
VHH: HVQLVESGGGSVQAGGSLRLTCAASGLAYSRTCMGWFRQAPGKEREVVATIRRDGTTTYADSVKGRFTISRDNTRNTLALQMNSLKPEDSAMYYCAAVWVALGVPTSVCPSEYKFWGQGTLVTVSS
